Laboratory results from patent CN111320685A.
Several values for one entry are separate records, joined by “and”; a condition that tells them apart may be missing. Equal values may be shown once.

Experiments:
[1] = biological target: H7N9病毒 A/Anhui/1/2013 (血凝素HA on virus) (influenza A virus A/Anhui/1/2013 (H7N9)); experiment: cell-based or functional assay
[2] = biological target: H7N9病毒的HA蛋白(购自ACROBiosystems) (H7N9 influenza virus); experiment: ELISA, HA coated, supernatant of transfected 293F cells, anti-human IgG-HRP
[3] = biological target: H7N9病毒的HA蛋白(购自ACROBiosystems) (H7N9 influenza virus); experiment: BLI (PALL Fortebio), 3F12 captured on protein A sensor, HA antigen in solution

B1: 抗H7N9全人源单克隆抗体3F12 (antibody, V domains shown)
VH: QVQLVESGAEVKKPGASVKVSCKASGYIFNSYDINWVRQATGQGLEWMGWMTPDSGDNGFAQKFQGRVTMTRNTSITTAYMELSSLTSEDTAVYYCANGTADCSSGGSCYTWFDPWGQGTLVTVSS
VL: SSELTQDPAVSVALGQTVRITCQGDRALRSYYASWYQQKPGQAPVLVIYGKTNRPSGIPDRFSGSSSGNTASLTITGAQAEDEADYYCTSRDNSGYHLVFGGGTKLTVLV
[1]
  中和实验 IC50 (微量中和-ELISA, MDCK细胞): 14.3 µg/mL
[2]
  OD 450nm: 2.31 OD450 and 2.78 OD450 and 2.06 OD450
[3]
  Kd: 3.5 nM
